Test results: patent US20100310509A1 (published 2010)
Values belong to the binder of their own block, whether it stands above or below them.

What was measured:
[1] = target: T1, soluble human LIFR (leukemia inhibitory factor receptor) (human, UniProt P42702 45-833); assay: SPR, ratio of KD values
T1 construct: extracellular domain; Bought; also called soluble LIFR
T1 sequence (looked up): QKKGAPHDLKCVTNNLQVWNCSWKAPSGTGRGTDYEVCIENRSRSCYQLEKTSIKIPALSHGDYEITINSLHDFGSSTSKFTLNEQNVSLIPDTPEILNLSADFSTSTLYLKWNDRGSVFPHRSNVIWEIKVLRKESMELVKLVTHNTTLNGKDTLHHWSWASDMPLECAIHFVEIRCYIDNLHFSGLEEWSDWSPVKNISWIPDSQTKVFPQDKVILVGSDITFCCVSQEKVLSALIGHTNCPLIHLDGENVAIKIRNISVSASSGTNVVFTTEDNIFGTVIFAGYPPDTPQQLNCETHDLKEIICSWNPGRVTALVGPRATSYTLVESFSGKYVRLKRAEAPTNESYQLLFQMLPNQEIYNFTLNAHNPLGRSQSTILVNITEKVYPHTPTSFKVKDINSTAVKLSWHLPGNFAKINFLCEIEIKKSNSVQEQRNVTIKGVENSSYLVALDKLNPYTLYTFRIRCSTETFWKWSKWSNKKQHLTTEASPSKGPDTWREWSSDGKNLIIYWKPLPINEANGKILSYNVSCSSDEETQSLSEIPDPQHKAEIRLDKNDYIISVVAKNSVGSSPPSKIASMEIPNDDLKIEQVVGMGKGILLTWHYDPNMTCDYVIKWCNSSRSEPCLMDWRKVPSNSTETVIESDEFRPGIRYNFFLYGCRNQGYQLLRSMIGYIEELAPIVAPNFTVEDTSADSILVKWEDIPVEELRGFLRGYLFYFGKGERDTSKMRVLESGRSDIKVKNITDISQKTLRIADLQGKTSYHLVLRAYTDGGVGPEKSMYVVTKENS
Description: (§1) A concentration series of soluble LIFR (# 249-LR-050/CF, R&D Systems, Minneapolis, Minn.), soluble OSMR (# 4389-OR-50, R&D Systems, Minneapolis, Minn.) or soluble gp130 (# 228-GP-050/CF, R&D Systems, Minneapolis, Minn.) in running buffer (10 mM HEPES pH 7.4, 150 mM NaCl, 3.4 mM EDTA, 0.005% Tween-20) were injected over both channels at a flow rate of 25 μl/min. Following a dissociation period of 3 minutes, the surfaces were regenerated by injecting 10 mM NaOH for 30 seconds. Rate constants for association (kₐ) and dissociation (kd) rates were derived by global analysis of the response curves fit to a 1:1 kinetic model (Equations 1 and 2) using QDat software (BioLogic Software, Ltd. Knoxville Tenn. and Nomadics, Inc. Stillwater, Okla.) using 1:1 stoichiometry.
(§2) Reducing the size of the BC loop improves OSM's affinity towards LIFR and OSMR. […] To directly measure the binding kinetics of these ligand-receptor interactions, surface plasmon resonance (SPR) was used. The cytokines (LIF, OSM-WT, OSM-M1 and OSM-M2) were immobilized on the sensor chip surface, while recombinant soluble receptors were used as the analytes (FIG. 11).

[2] = target: T2, soluble gp130 (R&D Systems # 228-GP-050/CF) (UniProt P40189 23-619, limits assumed); assay: SPR, ratio of KD values
T2 construct: extracellular domain; Bought
T2 sequence (looked up): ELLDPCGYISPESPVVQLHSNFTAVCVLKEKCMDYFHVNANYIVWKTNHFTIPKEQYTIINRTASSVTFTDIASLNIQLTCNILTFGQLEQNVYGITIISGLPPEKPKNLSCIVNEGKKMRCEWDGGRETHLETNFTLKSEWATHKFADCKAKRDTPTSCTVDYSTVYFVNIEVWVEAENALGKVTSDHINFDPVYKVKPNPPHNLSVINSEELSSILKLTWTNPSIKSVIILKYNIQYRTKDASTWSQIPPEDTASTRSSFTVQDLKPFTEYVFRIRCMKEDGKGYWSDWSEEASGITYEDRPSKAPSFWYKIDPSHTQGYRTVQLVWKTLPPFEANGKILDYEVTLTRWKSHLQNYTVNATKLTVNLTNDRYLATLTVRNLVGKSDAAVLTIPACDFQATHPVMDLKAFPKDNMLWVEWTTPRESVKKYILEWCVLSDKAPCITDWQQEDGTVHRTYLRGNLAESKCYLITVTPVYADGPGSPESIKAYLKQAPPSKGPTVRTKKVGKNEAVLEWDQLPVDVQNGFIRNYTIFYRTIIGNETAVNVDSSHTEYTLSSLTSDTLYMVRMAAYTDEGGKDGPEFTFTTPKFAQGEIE
Description: as §1, §2

fold higher affinity than towards gp130 [1]: 23 fold
B1: human leukemia inhibitory factor (LIF) (ligand)
chain: not shown
notes: Purified recombinant protein; also called hLIF

fold higher affinity than towards LIFR [2]: 2 fold
B2: OSM-WT ('AGA' modified human Oncostatin M, referred to as wild-type OSM) (ligand)
chain: AAIGSCSKEYRVLLGQLQKQTDLMQDTSRLLDPYIRIQGLDVPKLREHCRERPGAFPSEETLRGLGRRGFLQTLNATLGCVLHRLADLEQRLPKAQDLERSGLNIEDLEKLQMARPNILGLRNNIYCMAQLLDNSDTAEPTKAGAGASQPPTPTPASDAFQRKLEGCRFLHGYHRFMHSVGRVFSKWGESPN
notes: also called hOSM with AGA modification; not shown: N-terminal FLAG tag left after thrombin removal of GST
